Laboratory results as given in the supplement of paper PMC7877785.
± gives the uncertainty stated by the source.

Experiment: self-splicing fitness, log relative to wild type (ln ratio); higher = more splicing; Tetrahymena group I intron in knt gene, E. coli kanamycin selection, DiMSum; sequences stand for … in CUCUCU…GGAGGGAAAAGUUAUCAGGCAUGCACCUGGUAGCUAGUCUUUAAACCAAUAGAUUGCAUCGGUUUAAAAGGCAAGACCGUCAAAUUGCGGGAAAGGGGUCAACAGCCGUUCAGUACCAAGUCUCAGGGGAAACUUUGAGAUGGCCUUGCAAAGGGUAUGGUAAUAAGCUGACGGACAUGGUCCUAACCACGCAGCCAAGUCCUAAGUCAACAGAUCUUCUGUUGAUAUGGAUGCAGUUCACAGACUAAAUGUCGGUCGGGGAAGAUGUAUUCUUCUCAUAAGAUAUAGUCGGACCUCUCCUUAAUGGGAGCUAGCGGAUGAAGUGAUGCAACACUGGAGCCGCUGGGAACUAAUUUGUAUGCGAAAGUAUAUUGAUUAGUUUUGGAGUACUCGUGGUCG
In short: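 The eight P1ex-region nucleotides of an intron in the knt kanamycin-resistance gene on pET-22b(+) were all randomised and the library put into E. coli BL21(DE3). Six replicate transformations were grown overnight at 37°C or 30°C on LB agar with or without 25 μg/mL kanamycin, together with 100 μg/mL carbenicillin, 50 μM IPTG and 0.2% rhamnose. Colonies were pooled and amplicon-sequenced on an Illumina HiSeq 2500. Fitness from DiMSum is the error-weighted combination of wild-type-normalised replicate fold changes, kanamycin over none.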

Sequence | self-splicing fitness (ln) (30 °C) | self-splicing fitness (ln) (37 °C)
GUCGAGCAAUAUUACGUUUC | -2.08 ± 0.21 | -1.88 ± 0.2
GUCUAGCAAUAUUACGAAGA | -3.16 ± 0.24 | -2.24 ± 0.2
GUCUAGCAAUAUUACGAAGC | -1.58 ± 0.18 | -0.814 ± 0.18
GUCUAGCAAUAUUACGAAUU | -1.29 ± 0.077 | -0.287 ± 0.098
GUCUAGCAAUAUUACGAGAU | -3.31 ± 0.26 | -2.32 ± 0.22
GUCUAGCAAUAUUACGAGUC | -1.93 ± 0.11 | -1.88 ± 0.093
GUCUAGCAAUAUUACGCAAC | -1.33 ± 0.087 | -0.643 ± 0.095
GUCUAGCAAUAUUACGCCGG | -3.17 ± 0.33 | -2.31 ± 0.33
GUCUAGCAAUAUUACGCGGC | – | -2.87 ± 0.4
GUCUAGCAAUAUUACGCUAU | -1.54 ± 0.11 | -0.228 ± 0.1
GUCUAGCAAUAUUACGCUUC | -1.25 ± 0.11 | -0.47 ± 0.12
GUCUAGCAAUAUUACGGAAA | -0.658 ± 0.12 | -0.44 ± 0.12
GUCUAGCAAUAUUACGGGCA | -3.1 ± 0.44 | -1.43 ± 0.21
GUCUAGCAAUAUUACGGGGG | -2.58 ± 0.33 | -1.46 ± 0.17
GUCUAGCAAUAUUACGGUUA | -0.904 ± 0.15 | -0.443 ± 0.13
GUCUAGCAAUAUUACGUGAA | -0.302 ± 0.1 | 0.449 ± 0.097
GUCUAGCAAUAUUACGUGCC | -1.54 ± 0.24 | -0.468 ± 0.28
GUCUAGCAAUAUUACGUUUC | -0.78 ± 0.057 | -0.0328 ± 0.073
GUGAAGCAAUAUUACGAAAC | -1.66 ± 0.11 | -0.943 ± 0.14
GUGAAGCAAUAUUACGACUA | -0.0623 ± 0.096 | 0.462 ± 0.14
GUGAAGCAAUAUUACGAUCU | -1.26 ± 0.13 | -0.0185 ± 0.12
GUGAAGCAAUAUUACGCAAA | -2.12 ± 0.12 | -1.52 ± 0.16
GUGAAGCAAUAUUACGCACU | -3.68 ± 0.47 | -2.19 ± 0.29
GUGAAGCAAUAUUACGCAGA | -3.85 ± 0.25 | -2.39 ± 0.25
GUGAAGCAAUAUUACGCAUU | -2.66 ± 0.27 | -1.05 ± 0.15
GUGAAGCAAUAUUACGCGCG | -0.674 ± 0.083 | 0.0224 ± 0.12

Sequence | self-splicing fitness (ln) (30 °C) | self-splicing fitness (ln) (37 °C)
GUGAAGCAAUAUUACGCUAA | -1.25 ± 0.15 | -0.0384 ± 0.17
GUGAAGCAAUAUUACGCUAU | -1.95 ± 0.15 | -0.0655 ± 0.15
GUGAAGCAAUAUUACGGCAA | 0.587 ± 0.084 | 0.552 ± 0.11
GUGAAGCAAUAUUACGGGCG | -0.39 ± 0.052 | -0.217 ± 0.065
GUGAAGCAAUAUUACGGGGA | -2.85 ± 0.22 | -2.64 ± 0.29
GUGAAGCAAUAUUACGGGUC | -2.26 ± 0.21 | -2.21 ± 0.28
GUGAAGCAAUAUUACGGUUA | -0.24 ± 0.054 | 0.132 ± 0.086
GUGAAGCAAUAUUACGUAGA | -2.33 ± 0.17 | -0.683 ± 0.17
GUGAAGCAAUAUUACGUCCA | -0.721 ± 0.16 | 0.775 ± 0.22
GUGAAGCAAUAUUACGUCUU | -1.6 ± 0.067 | -0.642 ± 0.078
GUGAAGCAAUAUUACGUGGG | -3.96 ± 0.2 | -2.13 ± 0.15
GUGCAGCAAUAUUACGAAGA | -2.35 ± 0.46 | -0.855 ± 0.15
GUGCAGCAAUAUUACGAAGC | -1.05 ± 0.14 | -1.36 ± 0.19
GUGCAGCAAUAUUACGACCA | -0.711 ± 0.1 | -0.667 ± 0.13
GUGCAGCAAUAUUACGACUA | -0.908 ± 0.24 | -0.48 ± 0.26
GUGCAGCAAUAUUACGACUU | -0.219 ± 0.087 | 0.408 ± 0.093
GUGCAGCAAUAUUACGAGAG | -2.23 ± 0.15 | -2.42 ± 0.2
GUGCAGCAAUAUUACGAGUC | -2.57 ± 0.1 | -0.808 ± 0.099
GUGCAGCAAUAUUACGAGUG | -2.2 ± 0.15 | -2.11 ± 0.17
GUGCAGCAAUAUUACGAUCA | -1.14 ± 0.1 | -0.487 ± 0.12
GUGCAGCAAUAUUACGAUGC | -0.245 ± 0.11 | 0.208 ± 0.17
GUGCAGCAAUAUUACGCAAG | -1.5 ± 0.1 | -0.974 ± 0.12
GUGCAGCAAUAUUACGCAAU | -1.75 ± 0.085 | -1.37 ± 0.12
GUGCAGCAAUAUUACGCACC | – | -1.79 ± 0.35
GUGCAGCAAUAUUACGCACG | -2.88 ± 0.38 | -2.85 ± 0.45
GUGCAGCAAUAUUACGCCGU | -2.77 ± 0.23 | -0.412 ± 0.18

Sequence | self-splicing fitness (ln) (30 °C) | self-splicing fitness (ln) (37 °C)
GUGCAGCAAUAUUACGCGAC | -3.59 ± 0.34 | -1.8 ± 0.2
GUGCAGCAAUAUUACGCGAU | -3.78 ± 0.31 | -1.45 ± 0.31
GUGCAGCAAUAUUACGCGGU | -2.93 ± 0.19 | -2.94 ± 0.32
GUGCAGCAAUAUUACGGAAC | -2.17 ± 0.23 | -1.12 ± 0.33
GUGCAGCAAUAUUACGGAAU | -2.01 ± 0.073 | -0.012 ± 0.087
GUGCAGCAAUAUUACGGCAG | -2.71 ± 0.33 | -1.04 ± 0.25
GUGCAGCAAUAUUACGGGCG | -1.82 ± 0.092 | -0.512 ± 0.11
GUGCAGCAAUAUUACGUAAA | -0.491 ± 0.084 | -1.05 ± 0.11
GUGCAGCAAUAUUACGUAAC | -1.63 ± 0.15 | -0.239 ± 0.14
GUGCAGCAAUAUUACGUCCG | -3 ± 0.22 | -0.37 ± 0.18
GUGCAGCAAUAUUACGUCGG | -2.84 ± 0.16 | -1.47 ± 0.17
GUGCAGCAAUAUUACGUGUG | -2.95 ± 0.11 | -1.33 ± 0.1
GUGCAGCAAUAUUACGUGUU | -1.99 ± 0.081 | -1.22 ± 0.084
GUGCAGCAAUAUUACGUUUU | -2.08 ± 0.096 | -1.69 ± 0.096
GUGGAGCAAUAUUACGAAGA | – | -2.05 ± 0.49
GUGGAGCAAUAUUACGAGCG | -3.52 ± 0.38 | -1.62 ± 0.31
GUGGAGCAAUAUUACGAGGG | -4.4 ± 0.33 | –
GUGGAGCAAUAUUACGAUGG | – | -2.9 ± 0.38
GUGGAGCAAUAUUACGCAUA | – | -1.1 ± 0.4
GUGGAGCAAUAUUACGCCUC | -3.07 ± 0.3 | -1 ± 0.25
GUGGAGCAAUAUUACGCCUG | -2.7 ± 0.23 | –
GUGGAGCAAUAUUACGGCUG | -2.49 ± 0.21 | -2.1 ± 0.32
GUGGAGCAAUAUUACGGGAA | -2.15 ± 0.28 | -3.23 ± 0.35
GUGGAGCAAUAUUACGGGGU | -3.24 ± 0.44 | -2.26 ± 0.42
GUGGAGCAAUAUUACGGUCC | -2.12 ± 0.19 | -1.91 ± 0.24
